The values that follow are results of earlier work, collected in article PMC3158961.

Read-outs that look alike come from different tables or passages of the source.

A word on the Kd: it is the constant that tells how readily two partners part at equilibrium.

The target in series [1] is CEP55 (Homo sapiens) (UniProt Q53EZ4).
The next series has as its target Nedd4 WW3 (UniProt P46934).
In series [2] the target is CEP55 (Homo sapiens) (UniProt Q53EZ4). The source holds these as a separate data set.

Chain of UniProt Q53EZ4 (Q53EZ4 whole entry): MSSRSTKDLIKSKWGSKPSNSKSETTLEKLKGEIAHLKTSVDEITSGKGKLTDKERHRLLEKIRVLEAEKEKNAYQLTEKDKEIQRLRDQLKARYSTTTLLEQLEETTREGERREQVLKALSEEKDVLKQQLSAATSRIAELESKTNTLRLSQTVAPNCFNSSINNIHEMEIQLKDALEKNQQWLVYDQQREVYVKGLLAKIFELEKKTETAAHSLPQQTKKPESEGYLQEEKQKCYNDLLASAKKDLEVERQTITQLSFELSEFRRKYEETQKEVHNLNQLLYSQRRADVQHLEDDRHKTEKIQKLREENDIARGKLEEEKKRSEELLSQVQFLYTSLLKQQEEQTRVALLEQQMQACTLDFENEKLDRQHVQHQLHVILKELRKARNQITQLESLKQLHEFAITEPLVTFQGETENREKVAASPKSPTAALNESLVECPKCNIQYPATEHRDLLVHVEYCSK
Chain of UniProt P46934 (P46934 840-873): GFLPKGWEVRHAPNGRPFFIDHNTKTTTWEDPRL

As to “ALIX GPPX3Y peptide (from UniProt Q8WUM4)”, the Kd in the series with CEP55 (Homo sapiens) [1] is 1 µM.
Regarding “ENaC β subunit PPXY peptide (from UniProt P51168)”, the Kd with Nedd4 WW3 was 20 µM.
Regarding “TSG101 GPPX3Y peptide (from UniProt Q99816)”, the Kd in the series with CEP55 (Homo sapiens) [2] was 1 µM.
